# Data from paper PMC9933121 (Proceedings of the National Academy of Sciences of the …, 2023).
# T1: DENV2 strain 16681 premembrane (prM) protein, wild type (Dengue virus 2 strain 16681 (NC_001474))
# T1 chain: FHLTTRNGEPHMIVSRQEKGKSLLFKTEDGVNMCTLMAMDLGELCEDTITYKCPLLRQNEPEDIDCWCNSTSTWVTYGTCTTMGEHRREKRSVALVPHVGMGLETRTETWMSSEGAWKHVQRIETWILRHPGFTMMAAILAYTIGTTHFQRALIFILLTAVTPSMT
# Experiments:
# [1] = molecular target: DENV2 strain 16681 premembrane (prM) protein, wild type (dengue virus 2 strain 16681)
# [2] = molecular target: trimeric prM–E spike of immature DENV2 strain 16681 virions (dengue virus 2 strain 16681); test: cryo-EM structure
# [3] = molecular target: T1, DENV2 strain 16681 premembrane (prM) …; test: cell-based or functional assay
binder,measurement,setting,value
"prM12, murine prM-reactive monoclonal antibody (IgG2c) (antibody, V domains shown) VH: EVQLQESGPELVKPGTSVKMSCKASGYTFTDYNIHWVKQSHGKSLEWIGYINPNNGGNKYTQKFEGRATLTVGKSSSTAYMELRSLTSEDSAVYYCARSPMYFYYDGSYYFDYWGQGTSLSVSS VL: DIVLTQSPASLAVSLGQRATISYRASKSVSTSGYSYMHWNQQKPGQPPRLLIYLVSNLESGVPARFSGSGSGTDFTLNIHPVEEEDAATYYCQHIRELTFGAAPSAAAR","neutralisation of DENV2 RVPs, EC50 of the sensitive fraction of virions",[1],5 ng/mL
"prM12 Fab fragment (Fab, V domains shown) VH: EVQLQESGPELVKPGTSVKMSCKASGYTFTDYNIHWVKQSHGKSLEWIGYINPNNGGNKYTQKFEGRATLTVGKSSSTAYMELRSLTSEDSAVYYCARSPMYFYYDGSYYFDYWGQGTSLSVSS VL: DIVLTQSPASLAVSLGQRATISYRASKSVSTSGYSYMHWNQQKPGQPPRLLIYLVSNLESGVPARFSGSGSGTDFTLNIHPVEEEDAATYYCQHIRELTFGAAPSAAAR",occupancy,[2],100%
"prM13, murine prM-reactive monoclonal antibody (IgG2c) (antibody, V domains shown) VH: AAQLQESGPELVKPGASVKISCKASGYTFTDYFINWVRQSHGKSLEWIGDFYPNNRGPTYNQKFEGKATLTVDKSSSTAYMELRSLTSDDSAVYYCARGLWDAWLSYWGQGTLVTVSA VL: AIVATQSPAIMSASPGEKVTISCSASSSVSYMYWYQQKPGSSPKPWIYRTSNLASGVPTRFSGSGSGTSYSFTISSMEAEDAATYYCQQYHNYPRTFGGGTKAKSA","neutralisation of DENV2 RVPs, EC50 of the sensitive fraction of virions",[3],~5 ng/mL
